Experimental findings from article PMC3390373 are described below.

This test has as its target FLAG-tagged C-terminally truncated RPS0A (residues 1–197) (S. cerevisiae) (UniProt P32905). Nature of the test: co-IP; WCE of H2880 wt cells overexpressing wt or C-terminally truncated RPS0A-FLAG; anti-FLAG M2 affinity matrix, 60 min, 4°C, buffer A200T (200 mM KCl, 20 mM Tris pH 8, 5 mM Mg acetate, 1 mM DTT, 0.2% Triton X-100); whole 40S subunits with their associated eIFs are recovered through the tagged RPS0A; Western blot, normalised to ASC1 (Figure 5B). (A western blot detects proteins with antibodies after separation by electrophoresis.)
Chain of UniProt P32905 (P32905 1-197): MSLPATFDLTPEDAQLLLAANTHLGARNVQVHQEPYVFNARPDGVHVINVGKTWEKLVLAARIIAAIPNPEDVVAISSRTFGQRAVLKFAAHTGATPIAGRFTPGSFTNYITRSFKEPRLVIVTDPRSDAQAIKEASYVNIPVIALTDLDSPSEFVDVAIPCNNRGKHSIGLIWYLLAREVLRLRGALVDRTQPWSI

In the case of “eIF2 (from UniProt P32481 1-527) (complex)”, the percent reduction of the co-purified amount against wt RPS0A-FLAG amounted to 70%.
